These results are taken from article PMC5829230, “G-protein βγ subunits determine grain size through interaction with MADS-domain transcription factors in rice”.

The target in the data set is GST-OsMADS1 (Oryza sativa, UniProt Q10PZ9 1-257). The data set is described as follows: EMSA; 10x and 50x unlabeled probe as competitor; LightShift Chemiluminescent EMSA Kit (Thermo 20148); buffer, salt, pH and temperature not stated. As to conditions: protein: recombinant; tags: N-terminal GST (pGEX-4T-1); chain copies: 2; label: biotin; blunt. (Mobility shift assays separate free from complexed probe on a gel.)
Sequence of GST-OsMADS1 (Q10PZ9 whole entry): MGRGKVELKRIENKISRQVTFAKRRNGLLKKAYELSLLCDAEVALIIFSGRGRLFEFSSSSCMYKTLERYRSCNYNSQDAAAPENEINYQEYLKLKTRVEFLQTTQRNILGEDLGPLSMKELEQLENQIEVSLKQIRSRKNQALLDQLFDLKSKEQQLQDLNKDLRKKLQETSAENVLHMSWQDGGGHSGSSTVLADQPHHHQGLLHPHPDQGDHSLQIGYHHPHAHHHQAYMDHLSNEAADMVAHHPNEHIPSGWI

B1: MADS55-EMSA-probe (dsDNA)
DNA 1: AGGCAGTATCTATCTATTTATTGCGTATAAACTAAAT
DNA 2: ATTTAGTTTATACGCAATAAATAGATAGATACTGCCT
On to B1, for which the binding result is given as “binds”.
